{
  "source": "paper PMC8671107",
  "about": "(Frontiers in Molecular Biosciences, 2021)",
  "molecules": {"B1": {"name": "^125I-α-bungarotoxin (natural protein)", "chain": "IVCHTTATSPISAVTCPPGENLCYRKMWCDAFCSSRGKVVELGCAATCPSKKPYEEVTCCSTDKCNPHPKQRPG"}, "B2": {"name": "α-cobratoxin (natural protein)", "chain": "IRCFITPDITSKDCPNGHVCYTKTWCDAFCSIRGKRVDLGCAATCPTVKTGVDIQCCSTDNCNPFPTRKRP"}, "B3": {"name": "HOBDI-BF2–α-CbTx (natural protein)", "chain": "B2 chain"}},
  "key": {"[1]": {"target": "muscle-type nicotinic acetylcholine receptor from Torpedo californica electric organ (Torpedo californica (endogenous in electric organ))", "sequence (P02710 25-461 limits assumed, chain 1 of 4)": "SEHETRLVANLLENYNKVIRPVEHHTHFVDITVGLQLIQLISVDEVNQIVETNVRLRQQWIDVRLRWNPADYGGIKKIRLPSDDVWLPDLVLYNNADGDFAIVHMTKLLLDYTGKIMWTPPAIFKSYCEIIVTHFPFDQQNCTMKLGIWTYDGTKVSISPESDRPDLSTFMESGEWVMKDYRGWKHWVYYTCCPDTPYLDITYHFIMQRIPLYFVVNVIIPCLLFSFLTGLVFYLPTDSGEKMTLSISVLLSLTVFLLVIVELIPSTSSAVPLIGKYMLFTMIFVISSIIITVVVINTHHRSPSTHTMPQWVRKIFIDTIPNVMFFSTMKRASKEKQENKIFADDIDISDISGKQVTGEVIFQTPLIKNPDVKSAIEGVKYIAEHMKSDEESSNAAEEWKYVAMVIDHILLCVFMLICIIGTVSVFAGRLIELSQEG", "sequence (P02712 25-493 limits assumed, chain 2 of 4, further chain)": "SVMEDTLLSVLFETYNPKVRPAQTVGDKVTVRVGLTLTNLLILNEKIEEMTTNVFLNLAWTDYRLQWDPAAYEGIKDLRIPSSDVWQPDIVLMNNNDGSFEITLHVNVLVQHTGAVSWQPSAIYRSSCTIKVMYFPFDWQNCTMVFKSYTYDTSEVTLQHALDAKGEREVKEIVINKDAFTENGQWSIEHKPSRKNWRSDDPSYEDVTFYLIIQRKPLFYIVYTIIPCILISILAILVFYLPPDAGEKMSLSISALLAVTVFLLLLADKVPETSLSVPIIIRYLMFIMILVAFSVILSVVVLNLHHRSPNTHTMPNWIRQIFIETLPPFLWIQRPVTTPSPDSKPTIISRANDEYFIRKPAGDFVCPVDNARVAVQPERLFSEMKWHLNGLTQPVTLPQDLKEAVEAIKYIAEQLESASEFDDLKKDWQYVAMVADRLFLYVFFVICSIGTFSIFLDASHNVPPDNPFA", "sequence (P02714 18-506 limits assumed, chain 3 of 4, further chain)": "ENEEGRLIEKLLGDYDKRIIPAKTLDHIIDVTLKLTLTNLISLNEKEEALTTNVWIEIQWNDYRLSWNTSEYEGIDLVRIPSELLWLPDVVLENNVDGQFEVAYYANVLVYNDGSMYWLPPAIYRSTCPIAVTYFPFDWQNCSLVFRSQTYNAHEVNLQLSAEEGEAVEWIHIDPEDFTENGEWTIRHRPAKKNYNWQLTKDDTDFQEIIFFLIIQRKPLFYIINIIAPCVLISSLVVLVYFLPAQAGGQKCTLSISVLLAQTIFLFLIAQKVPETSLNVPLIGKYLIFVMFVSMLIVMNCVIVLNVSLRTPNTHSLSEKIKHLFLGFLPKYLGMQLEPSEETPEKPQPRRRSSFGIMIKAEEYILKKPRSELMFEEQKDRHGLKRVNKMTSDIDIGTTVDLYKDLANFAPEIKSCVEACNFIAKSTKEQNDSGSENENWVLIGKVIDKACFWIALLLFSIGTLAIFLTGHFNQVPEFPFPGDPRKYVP", "sequence (P02718 22-522 limits assumed, chain 4 of 4, further chain)": "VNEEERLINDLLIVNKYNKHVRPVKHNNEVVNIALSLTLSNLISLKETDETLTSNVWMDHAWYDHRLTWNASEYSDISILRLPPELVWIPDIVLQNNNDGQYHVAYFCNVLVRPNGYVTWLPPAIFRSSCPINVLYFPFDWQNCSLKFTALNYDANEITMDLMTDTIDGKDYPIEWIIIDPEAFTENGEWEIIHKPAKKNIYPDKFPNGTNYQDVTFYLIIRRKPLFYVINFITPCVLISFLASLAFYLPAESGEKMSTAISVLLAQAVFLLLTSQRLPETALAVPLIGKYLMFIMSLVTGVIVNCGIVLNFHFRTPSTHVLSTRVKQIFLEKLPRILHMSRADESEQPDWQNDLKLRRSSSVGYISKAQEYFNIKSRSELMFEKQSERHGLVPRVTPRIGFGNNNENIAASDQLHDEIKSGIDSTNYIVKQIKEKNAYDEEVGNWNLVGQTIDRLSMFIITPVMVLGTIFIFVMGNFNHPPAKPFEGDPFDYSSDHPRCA", "assay": "radioligand binding"}, "[2]": {"target": "neuronal human α7 nicotinic acetylcholine receptor expressed in GH4C1 cells (human) (UniProt P36544)", "sequence (P36544 23-502)": "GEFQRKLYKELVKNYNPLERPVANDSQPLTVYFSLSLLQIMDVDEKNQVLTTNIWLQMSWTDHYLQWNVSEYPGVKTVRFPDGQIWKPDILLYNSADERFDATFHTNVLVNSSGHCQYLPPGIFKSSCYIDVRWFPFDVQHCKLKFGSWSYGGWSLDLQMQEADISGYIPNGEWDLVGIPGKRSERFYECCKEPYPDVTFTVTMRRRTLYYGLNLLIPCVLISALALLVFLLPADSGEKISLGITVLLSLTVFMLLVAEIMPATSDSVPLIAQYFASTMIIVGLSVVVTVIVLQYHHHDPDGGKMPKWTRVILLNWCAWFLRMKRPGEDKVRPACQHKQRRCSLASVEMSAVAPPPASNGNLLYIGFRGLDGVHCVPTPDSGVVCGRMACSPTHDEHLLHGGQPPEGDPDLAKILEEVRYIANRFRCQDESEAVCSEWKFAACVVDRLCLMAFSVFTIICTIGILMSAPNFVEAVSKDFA", "assay": "radioligand binding"}, "[3]": {"target": "T1, acetylcholine binding protein from Lymnaea stagnalis (Lymnaea stagnalis, UniProt P58154 20-229)", "T1 construct": "also called AChBP; L. stagnalis AChBP", "T1 sequence (P58154 20-229)": "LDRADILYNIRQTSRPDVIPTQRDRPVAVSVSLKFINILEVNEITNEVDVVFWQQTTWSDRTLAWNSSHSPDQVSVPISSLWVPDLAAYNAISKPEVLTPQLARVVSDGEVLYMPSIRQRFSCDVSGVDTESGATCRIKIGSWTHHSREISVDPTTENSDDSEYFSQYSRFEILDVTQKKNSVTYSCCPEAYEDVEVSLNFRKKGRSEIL", "assay": "radioligand binding", "conditions": "both partners purified"}, "[4]": {"target": "T1, acetylcholine binding protein from …", "assay": "radioligand binding", "conditions": "both partners purified", "remark": "listed apart in the source"}, "[5]": {"target": "T1, acetylcholine binding protein from …", "assay": "MST", "conditions": "both partners purified"}, "[6]": {"target": "T1, acetylcholine binding protein from …", "assay": "other fluorescence titration", "conditions": "both partners purified"}},
  "note": "No end group written: not given here.",
  "data": [
    {"molecule": "HOBDI-BF2–α-CbTx (from UniProt P01391 1-71) (natural protein)", "values": [
      {"measurement": "IC50", "setting": "[1]", "result": 3.88, "unit": "nM"},
      {"measurement": "IC50", "setting": "[2]", "result": 27, "unit": "nM"}
    ]},
    {"molecule": "HOBDI-BF2–Aze (fraction 4, label at Lys6) (peptide)", "values": [
      {"measurement": "IC50", "setting": "[1]", "result": 172, "unit": "nM"}
    ]},
    {"molecule": "α-cobratoxin (from UniProt P01391 1-71) (natural protein)", "values": [
      {"measurement": "IC50", "setting": "[1]", "result": 0.57, "unit": "nM"},
      {"measurement": "IC50", "setting": "[2]", "result": 5.4, "unit": "nM"}
    ]},
    {"molecule": "B1", "values": [
      {"measurement": "binding result", "setting": "[3]", "result": "binds"}
    ]},
    {"molecule": "DNWWPKPPHQGPRPPRPRPKP-NH2", "note": "[azemiopsin]", "values": [
      {"measurement": "IC50", "setting": "[1]", "result": 7.3, "unit": "nM"}
    ]},
    {"molecule": "DNWWPKPPHQGPRPPRPRPKP-NH2 (also: one p-HOBDI-BF2 label, position not given here)", "note": "[Fraction 5 of p-HOBDI-BF2-modified azemiopsin (mono-modified product)]", "values": [
      {"measurement": "IC50", "setting": "[1]", "result": 128, "unit": "nM"}
    ]},
    {"molecule": "B2", "values": [
      {"measurement": "IC50", "setting": "[4]", "result": 28, "unit": "nM"}
    ]},
    {"molecule": "B3", "values": [
      {"measurement": "Kd", "setting": "[5]", "result": "194 ± 89", "unit": "nM"},
      {"measurement": "IC50", "setting": "[4]", "result": 67, "unit": "nM"},
      {"measurement": "Kd", "setting": "[6]", "result": "~200", "unit": "nM"}
    ]},
    {"molecule": "DNWWPKPPHQGPRPPRPRPKP-NH2 (also: one p-HOBDI-BF2 label, position not given here)", "values": [
      {"measurement": "IC50", "setting": "[1]", "result": 210, "unit": "nM"}
    ]}
  ]
}
